“Also recorded” adds a separate entry of the source.
Tests used:
2F5 = conditions: cited from earlier work; for binding/affinity to 2F5 relative to the LELDKWASL peptide: Tian, 2003
[1] = target: HRV14:HIV-1 gp41 […] chimeric virus 14-B128-12; experiment: cell-based or functional assay
[2] = target: HRV14:HIV-1 gp41 […] chimeric virus 14-B128-22; experiment: cell-based or functional assay
[3] = target: HRV14:HIV-1 gp41 […] chimeric virus 14-B128-23; experiment: cell-based or functional assay
[4] = target: HRV14:HIV-1 gp41 […] chimeric virus 14-B64-5; experiment: cell-based or functional assay
[5] = target: HRV14:HIV-1 gp41 […] chimeric virus 14-C1000-1; experiment: cell-based or functional assay
[6] = target: HRV14:HIV-1 gp41 […] chimeric virus 14-C4000-1 (human rhinovirus type 14) (UniProt P03303); experiment: cell-based or functional assay
[7] = target: HRV14:HIV-1 gp41 […] chimeric virus 14-C4000-14; experiment: cell-based or functional assay
[8] = target: HRV14:HIV-1 gp41 […] chimeric virus 14-C512-2; experiment: cell-based or functional assay
[9] = target: HRV14:HIV-1 gp41 […] chimeric virus 14-C512-3; experiment: cell-based or functional assay
[10] = target: HRV14:HIV-1 gp41 […] chimeric virus 22-AN15000-8; experiment: cell-based or functional assay
[11] = target: HRV14:HIV-1 gp41 […] chimeric virus 24-AN15000-3; experiment: cell-based or functional assay
[12] = target: HRV14:HIV-1 gp41 […] chimeric virus 44-B256-2; experiment: cell-based or functional assay
[13] = target: HRV14:HIV-1 gp41 […] chimeric virus 44-B4000-13; experiment: cell-based or functional assay
[14] = target: HRV14:HIV-1 gp41 […] chimeric virus 44-B64-12; experiment: cell-based or functional assay
[15] = target: HRV14:HIV-1 gp41 […] chimeric virus 44-B64-14; experiment: cell-based or functional assay
[16] = target: HRV14:HIV-1 gp41 […] chimeric virus 44-B64-4; experiment: cell-based or functional assay
[17] = target: HRV14:HIV-1 gp41 […] chimeric virus 44-BN30000-2; experiment: cell-based or functional assay
[18] = target: HRV14:HIV-1 gp41 […] chimeric virus 44-BN30000-9; experiment: cell-based or functional assay
[19] = target: HRV14:HIV-1 gp41 […] chimeric virus 44-BN7500-4; experiment: cell-based or functional assay
[20] = target: HRV14:HIV-1 gp41 […] chimeric virus 44-C4000-4 (human rhinovirus type 14) (UniProt P03303); experiment: cell-based or functional assay
[21] = target: HRV14:HIV-1 gp41 […] chimeric virus 64-B256-2; experiment: cell-based or functional assay
[22] = target: HRV14:HIV-1 gp41 […] chimeric virus 64-B32-3; experiment: cell-based or functional assay
[23] = target: HRV14:HIV-1 gp41 […] chimeric virus 64-B32-4; experiment: cell-based or functional assay
[24] = target: HRV14:HIV-1 gp41 […] chimeric virus 64-C16-2; experiment: cell-based or functional assay
[25] = target: HRV14:HIV-1 gp41 […] chimeric virus 64-C32-3; experiment: cell-based or functional assay
[26] = target: Biotin-conjugated …-NH2 (HIV-1); experiment: direct ELISA, IgG on immobilized biotinylated …; conditions: scale: reciprocal dilution of 1 mg/ml IgG at OD450 of 0.5

Substance: Ac-CNEQELLEKDKWADL-NH2 (lactam (positions not given here); also: lactam bridge between underlined K and D, places not given here) [Lac-1, constrained peptide with a lactam bridge between K and D residues]
- binding/affinity to 2F5 relative to the LELDKWASL peptide (2F5): higher affinities to 2F5; also recorded: two times more tightly

Substance: Ac-CENEQELLELDKWASL-NH2 [Linear-1]
- binding/affinity to 2F5 relative to the LELDKWASL peptide (2F5): higher affinities to 2F5

Substance: human mAb 2F5 (antibody)
- 2F5 IC50, microtiter neutralization assay [1]: 0.49 µg/mL
- 2F5 IC50, microtiter neutralization assay [2]: 0.57 µg/mL
- 2F5 IC50, microtiter neutralization assay [3]: 5.9 µg/mL
- 2F5 IC50, microtiter neutralization assay [4]: 0.29 µg/mL
- 2F5 IC50, microtiter neutralization assay [5]: 1.5 µg/mL
- 2F5 IC50, microtiter neutralization assay [6]: 0.98 µg/mL
- 2F5 IC50, microtiter neutralization assay [7]: 0.64 µg/mL
- 2F5 IC50, microtiter neutralization assay [8]: 0.05 µg/mL
- 2F5 IC50, microtiter neutralization assay [9]: 3 µg/mL
- 2F5 IC50, microtiter neutralization assay [10]: 8.2 µg/mL
- 2F5 IC50, microtiter neutralization assay [11]: 1.5 µg/mL
- 2F5 IC50, microtiter neutralization assay [12]: 0.31 µg/mL
- 2F5 IC50, microtiter neutralization assay [13]: 0.24 µg/mL
- 2F5 IC50, microtiter neutralization assay [14]: 0.21 µg/mL
- 2F5 IC50, microtiter neutralization assay [15]: 0.16 µg/mL
- 2F5 IC50, microtiter neutralization assay [16]: 0.06 µg/mL
- 2F5 IC50, microtiter neutralization assay [17]: 0.01 µg/mL
- 2F5 IC50, microtiter neutralization assay [18]: 0.02 µg/mL
- 2F5 IC50, microtiter neutralization assay [19]: 0.01 µg/mL
- 2F5 IC50, microtiter neutralization assay [20]: 0.66 µg/mL
- 2F5 IC50, microtiter neutralization assay [21]: 0.23 µg/mL
- 2F5 IC50, microtiter neutralization assay [22]: 0.05 µg/mL
- 2F5 IC50, microtiter neutralization assay [23]: 0.49 µg/mL
- 2F5 IC50, microtiter neutralization assay [24]: 0.07 µg/mL
- 2F5 IC50, microtiter neutralization assay [25]: 0.05 µg/mL
- … binding [26]: 2400

Substance: LELDKWASL
- binding to 2F5 in an ELISA relative to the shorter ELDKWAS peptide (2F5; Tian et al., 2002): ~100 fold
